Assay results published in paper doi:10.1101/303024 (bioRxiv, 2018).

Target: T1, Cdc24-6xHis (full-length, wild type) (S. cerevisiae (budding yeast), UniProt P11433 1-854)
T1 sequence: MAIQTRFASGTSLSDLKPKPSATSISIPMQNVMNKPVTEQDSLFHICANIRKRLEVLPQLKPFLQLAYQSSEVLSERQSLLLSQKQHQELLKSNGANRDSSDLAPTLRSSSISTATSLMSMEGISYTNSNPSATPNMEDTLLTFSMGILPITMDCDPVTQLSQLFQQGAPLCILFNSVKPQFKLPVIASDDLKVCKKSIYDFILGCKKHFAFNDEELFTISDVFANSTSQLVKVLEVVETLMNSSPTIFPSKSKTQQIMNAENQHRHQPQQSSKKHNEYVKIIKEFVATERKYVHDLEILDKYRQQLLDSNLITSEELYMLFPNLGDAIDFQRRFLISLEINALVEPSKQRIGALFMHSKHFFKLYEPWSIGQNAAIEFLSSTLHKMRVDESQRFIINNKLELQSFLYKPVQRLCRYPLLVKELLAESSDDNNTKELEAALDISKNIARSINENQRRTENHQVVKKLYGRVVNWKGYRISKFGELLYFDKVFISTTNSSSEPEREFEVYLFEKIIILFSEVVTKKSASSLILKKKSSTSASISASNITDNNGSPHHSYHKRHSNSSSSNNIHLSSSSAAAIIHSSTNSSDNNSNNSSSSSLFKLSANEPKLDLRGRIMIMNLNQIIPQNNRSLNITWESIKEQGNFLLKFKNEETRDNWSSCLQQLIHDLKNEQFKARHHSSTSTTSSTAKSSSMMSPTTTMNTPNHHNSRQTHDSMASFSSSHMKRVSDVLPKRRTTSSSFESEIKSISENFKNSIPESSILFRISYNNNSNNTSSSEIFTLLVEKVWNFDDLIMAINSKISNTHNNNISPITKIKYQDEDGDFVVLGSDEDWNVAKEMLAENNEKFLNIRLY
Assay: liposome floatation

B1: Bem1 (full-length, wild type) (natural protein)
chain: MLKNFKLSKRDSNGSKGRITSADISTPSHDNGSVIKHIKTVPVRYLSSSSTPVKSQRDSSPKNRHNSKDITSPEKVIKAKYSYQAQTSKELSFMEGEFFYVSGDEKDWYKASNPSTGKEGVVPKTYFEVFDRTKPSSVNGSNSSSRKVTNDSLNMGSLYAIVLYDFKAEKADELTTYVGENLFICAHHNCEWFIAKPIGRLGGPGLVPVGFVSIIDIATGYATGNDVIEDIKSVNLPTVQEWKSNIARYKASNISLGSVEQQQQQSITKPQNKSAKLVDGELLVKASVESFGLEDEKYWFLVCCELSNGKTRQLKRYYQDFYDLQVQLLDAFPAEAGKLRDAGGQWSKRIMPYIPGPVPYVTNSITKKRKEDLNIYVADLVNLPDYISRSEMVHSLFVVLNNGFDREFERDENQNNIKTLQENDTATFATASQTSNFASTNQDNTLTGEDLKLNKKLSDLSLSGSKQAPAQSTSGLKTTKIKFYYKDDIFALMLKGDTTYKELRSKIAPRIDTDNFKLQTKLFDGSGEEIKTDSQVSNIIQAKLKISVHDI
B1: binds.
